The source of these data is patent US20160009800A1 (XOMA US, published 2016).

In assay [1] the target is T1, mouse insulin receptor (mouse, UniProt P15208 28-1372).
T1 construct: whole, on cells; also called muINSR; mINSR
In words: FACS, serum-starved CHO-K1 cells expressing mouse INSR, no insulin [cont'd]. In general terms: A flow cytometer gives signals particle by particle.

Assay [2] concerns the target T2, mouse insulin receptor complexed with human insulin (mouse; human, UniProt P15208 28-1372; P01308 25-54; P01308 90-110).
T2 construct: whole, on cells;mature; also called muINSR/hINS complex
In words: FACS, serum-starved CHO-K1 cells expressing mouse INSR, with insulin [cont'd].

The target of assay [3] is T2, mouse insulin receptor complexed with …. Put plainly: FACS, CHO-K1 mouse INSR cells, signal with insulin divided by signal without insulin [cont'd].
Procedure: (§1) Twenty five microliter aliquots of cells were plated into 96 well plates, mixed with 25 ul of antibody or PPE and incubated on ice for 1 h.
(§2) The cells were then washed once with FACS buffer and the binding of the antibody was detected by the addition of 25 ul of an appropriate fluorochrome-conjugated secondary antibody. […] After a final 15 min incubation on ice the cells were washed and the pellets resuspended in FACS buffer. The cells were analyzed on a FACSCAN™ (Becton-Dickinson, Milipitas, Calif.) and the data analyzed in both FLOWJO™ (Treestar, Ashland, Oreg.) and Microsoft Excel™.
Another assay deals with T3, human insulin receptor (human, UniProt P06213 28-1382).
T3 construct: whole, on cells; Uncomplexed receptor on serum-starved cells (CHOK1 transfectants or IM-9); also called hINSR; INSR
In words: FACS, serum-starved CHO-K1 cells expressing human INSR, no insulin.

Assay [4] deals with T4, human insulin receptor complexed with human insulin (human, UniProt P06213 28-1382; P01308 25-54; P01308 90-110).
T4 construct: whole, on cells;mature; also called hINSR-hINS complex; INS/INSR complex
In words: FACS, CHO-K1 human INSR cells, signal with insulin divided by signal without insulin.
Procedure: as §1, §2

For assay [5], the target named is T2, mouse insulin receptor complexed with …. Put plainly: FACS, serum-starved CHO-K1 cells expressing mouse INSR, with insulin.
Procedure: as §1, §2
The target is the same in assay [6]. Put plainly: FACS, CHO-K1 mouse INSR cells, signal with insulin divided by signal without insulin.
Procedure: as §1, §2
In assay [7] the target is T1, mouse insulin receptor. Put plainly: FACS, serum-starved CHO-K1 cells expressing mouse INSR, no insulin.
Assay [8] addresses T4, human insulin receptor complexed with …. In words: FACS, serum-starved CHO-K1 cells expressing human INSR, with insulin.
Procedure: as §1, §2

B1: Ab081 (antibody, IgG2, V domains shown)
VH: EVQLVETGGGVVQPGRSLRLSCAASGFTFSSYAMHWVRQAPGKGLEWVAVISYDGSNKYYADSVKGRFTISRDNSKNTLYLQMNSLRAEDTAVYYCARHEWGFGMDVWGQGTTVTVSS
VL: DVVMTQSPLSLSVTLGQPASISCRSSLSLVYGDENTYLNWFQQRPGQSPRRLLYKVSDRDSGVPDRFSGSGSGTDFTLKISRVEADDVGVYYCMQGTHWPYTFGQGTKLEIK
notes: Negative modulator; also called XPA.015.247
B1: the figures for the “FACS area under log transformed data MFI” value (with mouse insulin receptor [1]; in assay [2]) were 189 and 125, respectively. Also, in assay [3], the “FACS area under log transformed data MFI ratio (+insulin/-insulin)” value worked out at 0.66.

B2: Ab054 (antibody, IgG2, V domains shown)
VH: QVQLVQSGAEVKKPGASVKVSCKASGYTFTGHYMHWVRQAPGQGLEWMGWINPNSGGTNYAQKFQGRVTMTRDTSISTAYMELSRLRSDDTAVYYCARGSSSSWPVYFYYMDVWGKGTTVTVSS
VL: QSALTQPRSVSESPGKTVTISCTGSGGSIGSNYVQWYQQRPGSAPTTVIFEDNRRPSGVPDRFSGSIHSSSNSASLTISGLKTEDEADYYCQSYVGTIVVFGGGTKVTVL
notes: also called XPA.015.197
As for B2, the “FACS area under log transformed data MFI” value in the assay with human insulin receptor was 1130; in assay [5], 519; with mouse insulin receptor [7], 1030; in assay [8], 356. Moreover, the “FACS area under log transformed data MFI ratio (+insulin/-insulin)” value stood at 0.32 in assay [4] and 0.51 in assay [6].

B3: Ab064 (antibody, IgG2, V domains shown)
VH: QVQLVQSGAEVKKPGESLKISCKGSGFSFPSYWIGWVRQMPGKGLELVGIIYPGDSDIRYSPSFQGQVTISADTSISTVYLQWSSLQTTDTATYYCARGGFNWFDPWGQGTLVTVSS
VL: QAVVTQEPSLTVSPGGTVTLTCASSTGAVTSGYYPNWFQQKPGQAPRALIYSTSNKHSWTPARFSGSLLGGKAALTLSGVQPEDEAEYYCLLYYGGAQPWVFGGGTQLTVL
notes: also called XPA.015.213
As to B3, the “FACS area under log transformed data MFI” value came out at 1710 with human insulin receptor, 813 in assay [5], 1020 with mouse insulin receptor [7] and 1270 in assay [8]. Moreover, the “FACS area under log transformed data MFI ratio (+insulin/-insulin)” value was determined as 0.74 in assay [4] and 0.8 in assay [6].

B4: Ab060 (antibody, IgG2, V domains shown)
VH: QMQLVQSGAEVKKPGSSVKVSCKASGGTFSSYAISWVRQAPGQGLEWMGIINPSGGSTSYAQKFQGRVTMTRDRSTSTVYMELSSLTSEDTAVYYCVRDNHGWSFDYWGQGTLVTVSS
VL: QAVLTQPASLSASPGESARLTCTLPSDINVRYYNIYWYQQKPGSPPRYLLYYYSDSNKDQGSGVPSRFSGSKDVSTNTGILVISGLQSEDEAEYYCMTWSSNGSGVFGGGTQLTVL
notes: also called XPA.015.207
Consider B4, for which the “FACS area under log transformed data MFI” value with human insulin receptor amounted to 460; in assay [5], 388; with mouse insulin receptor [7] it was 210; in assay [8], 308. Further, the “FACS area under log transformed data MFI ratio (+insulin/-insulin)” value in [4] was determined as 0.67; in assay [6], 1.85.

B5: Ab057 (antibody, IgG2, V domains shown)
VH: QMQLVQSGAEVKKPGESLKISCKGYGYRFSDNWIGWVRQMPGRGLEWMGIIYPGDSETRYSPSFQGQVTISADKSISTAYLQWSSLKASDTAMYYCARHAPLAVAGMALGDWGQGTLVTVSS
VL: QTVVTQEPSFSVSPGGTVTLTCGLTSGSVSTSYYPSWYQQTPGQAPRMLVHSTSTRYSGVPDRFSGSILGNKAALTITGAQADDESDYYCALYMGGGIYVFGGGTQLTVL
notes: also called XPA.015.200
With B5, the “FACS area under log transformed data MFI” value amounted to 250 in assay [5] and 409 with mouse insulin receptor [7]. The “FACS area under log transformed data MFI ratio (+insulin/-insulin)” value in assay [6] turned out to be 0.61.

B6: Ab052 (antibody, IgG2, V domains shown)
VH: EVQLVQSGAEVKKPGESLKISCKGSGYRFTSYWIGWVRQMPGRGLEWMGIIYPGDSDTRYSPSFQGQVTISVDKSISTAYLQWSSLKASDTAMYYCATHHASGRGLDPWGQGTLVTVSS
VL: QAMLTQPASLSASPGASASLTCTLRSGINVVAYNIYWYRQKSGSPPQSVLRYKSDSDSERDSGVPSRFSGSKDVSANAGILLISGLQSEDEADYYCLIWHNSAWVFGGGTQLTVL
notes: also called XPA.015.195
For B6, the results for the “FACS area under log transformed data MFI” value (in the assay with human insulin receptor; in assay [5]; with mouse insulin receptor [7]) were 445, 397 and 892, respectively. In assay [6], the “FACS area under log transformed data MFI ratio (+insulin/-insulin)” value was 0.45.

B7: Ab050 (antibody, IgG2, V domains shown)
VH: QVQLVQSGAELKKPGATVKISCKVSGYTFGDYHMHWVKQAPGKGLEWMGLVDPENGETEYGEKFQDRITMAADTSTDTAYMELSSLRSEDTAVYYCARSPSSSGYFRVDGFDIWGQGTMVTVSS
VL: NFMLTQPHSVSESPGKTVSISCTGSSGSIGSNYVQWYQQRPGSAPTTVIYEDNQRPSGVPDRFSGSIDSSSNSASLTISGLKTEDEADYYCQSYYNSNVVFGGGTKLTVL
notes: also called XPA.015.193
For the molecule B7, the “FACS area under log transformed data MFI” value in the assay with human insulin receptor was found to be 252; in assay [5], 170; with mouse insulin receptor [7], 424. Moreover, in assay [6], the “FACS area under log transformed data MFI ratio (+insulin/-insulin)” value was determined as 0.4.

B8: Ab065 (antibody, IgG2, V domains shown)
VH: QVQLVQSGAEVKKPGESLKISCKGSGYSFTSYWIGWVRQMPGKGLEWMGIIYPGDSDTRYSPSFQGQVTISADKSISTAYLQWSSLKASDTAMYYCARHELGIDYWGQGTLVTVSS
VL: QAGLTQPPSVSKGLRQTATLTCTGDNNIVGDQGAAWLQQHQGHPPKLLSFRNNSRPSGISERFSASRSRNTASLTITRLQPEDAADYYCSAWDSFLSAWVFGGGTKLTVL
notes: also called XPA.015.214
B8: the “FACS area under log transformed data MFI” value with human insulin receptor is 205; in [5], 177; in the assay with mouse insulin receptor [7], 483. Further, the “FACS area under log transformed data MFI ratio (+insulin/-insulin)” value in [6] is 0.37.

B9: Ab056 (antibody, IgG2, V domains shown)
VH: QVQLVQSGSEVKKPGASVKVSCKASGYTFTNSYMHWVRQAPGQGLEWMGIINPSAGTSYAQKFQGRVTMTRDTSTSTVYMELSSLKSEDTAVYYCARDVGWLPGDYWGQGTLVTVSS
VL: QSALTQPASVSESPGQSITISCTGTGSDIGTYNLVSWYQHHPGKAPKLMIYEVTKRPSGVSNRFSGSKSGNTASLTISGLQAEDEADYYCSSYTSSSTLYVFGTGTKLTVL
notes: also called XPA.015.199
B9: the “FACS area under log transformed data MFI” value with human insulin receptor is 1110; in [8] it was 927. The “FACS area under log transformed data MFI ratio (+insulin/-insulin)” value in [4] was 0.84.

B10: Ab069 (antibody, IgG2, V domains shown)
VH: EVQLVQSGAEVKKPGESLKISCKGSGYSFTSYWIGWVRQMPGKGLEWMGIIYPGDSDTRYSPSFQGQVTISADKSISIAYLQWSSLKASDTAMYYCARLGRGYYGMDVWGQGTTVTVSS
VL: SSELTQDPAVSVALGQTVRITCQGDSLRSYYASWYQQKPGQAPVLVIYGKNNRPSGIPDRFSGSRSGNTASLTITGAQAEDEADYYCNSRDSSGNHVVFGGGTKVTVL
notes: also called XPA.015.222
B10: the entries for the “FACS area under log transformed data MFI” value (with human insulin receptor; in assay [5]; with mouse insulin receptor [7]) were 357, 383 and 642, respectively. In addition, the “FACS area under log transformed data MFI ratio (+insulin/-insulin)” value in assay [6] was 0.6.

B11: Ab063 (antibody, IgG2, V domains shown)
VH: QVQLQQSGPGLVKPSQTLSLTCAISGDSVSSNSAAWNWIRQSPSRGLEWLGRTYYRSKWYTDYALSVKSRITINPDTSKNQFSLHLNSVTPEDTAVYYCAREGWLGYFDFWGQGTLVTVSS
VL: SSELTQPPSVSVAPGKTATITCGGDNIASKSVHWYQQKPGQAPVLVLYDDSVRPSDIPERFSGSNSANTATLTLTRVEAGDEGEYYCQVWDVRSDHPFFGPGTKVTVL
notes: also called XPA.015.212
Take B11: the “FACS area under log transformed data MFI” value came out at 943 with human insulin receptor, 733 in assay [5], 1020 with mouse insulin receptor [7] and 674 in assay [8]. Also, the “FACS area under log transformed data MFI ratio (+insulin/-insulin)” value in [4] came to 0.71; in assay [6] it was 0.72.
